Results taken from patent publication US20230025600A1, “TREATMENT OF CANCERS WITH ANTIBODY DRUG CONJUGATES (ADC) THAT BIND TO 191P4D12 PROTEINS” (AGENSYS, INC., priority 2019, published 2023).

Experiments:
[1] = Population pharmacokinetic analysis in patients; type: in vivo, human
Source text: Population pharmacokinetic analysis included data from 369 patients based on three Phase 1 studies and one Phase 2 study. Enfortumab vedotin-ejfv pharmacokinetics were characterized after single and multiple doses in patients with locally advanced or metastatic urothelial carcinoma and other solid tumors.
Steady-state concentrations of ADC and MMAE were reached after 1 treatment cycle.

rats = assay: Repeat-dose toxicology studies in rats; type: in vivo, rat
[2] = test system: locally advanced or metastatic urothelial cancer; assay: EV-201 single-arm trial, efficacy (BICR, RECIST v1.1); type: in vivo, human
Method: The efficacy of PADCEV was evaluated in EV-201 (NCT03219333), single-arm, multicenter trial that enrolled 125 patients with locally advanced or metastatic urothelial cancer who received prior treatment with a PD-1 or PD-L1 inhibitor and platinum-based chemotherapy. Patients were excluded if they had active CNS metastases, ongoing sensory or motor neuropathy >Grade 2, or uncontrolled diabetes defined as hemoglobin A1C (HbA1c)≥8% or HbA1c≥7% with associated diabetes symptoms.
The median age was 69 years (range: 40 to 84 years), 70% were male, and 85% were Caucasian. […] Ninety percent of patients had visceral metastases including 40% with liver metastases. Two-thirds of patients had pure transitional cell carcinoma (TCC) histology; 33% had TCC with other histologic variants. An immunohistochemistry clinical trial assay was used to assess patients with tumor tissue available, and detected Nectin-4 expression in all patients tested (n=120). The median number of prior systemic therapies was 3 (range: 1 to 6). Forty-six percent of patients received prior PD-1 inhibitor, 42% received prior PD-L1 inhibitor, and an additional 13% received both PD-1 and PD-L1 inhibitors. Sixty-six percent of patients received prior cisplatin-based regimens, 26% received prior carboplatin-based regimens, and an additional 8% received both cisplatin and carboplatin-based regimens.
The major efficacy outcome measures were confirmed objective response rate (ORR) and duration of response (DOR) assessed by blinded independent central review (BICR) using RECIST v1.1.

[3] = Cardiac electrophysiology (QTc); type: in vivo, human; conditions: at the recommended dose; large = >20 msec
[4] = Storage of reconstituted vial and prepared infusion bag; type: physicochemical
Method: 7. Based upon the calculated dose amount, the reconstituted solution from the vial(s) should be added to the infusion bag immediately. […] If not used immediately, reconstituted vials may be stored for up to […] in refrigeration at 2° C. to 8° C. (36° F. to 46° F.). […] Discard unused vials with reconstituted solution beyond the recommended storage time.
14. If the infusion is not administered immediately, the prepared infusion bag should not be stored longer than […] at 2° C. to 8° C. (36° F. to 46° F.).

[5] = Immunogenicity (anti-therapeutic antibody, ATA); type: in vivo, human; conditions: 365 patients tested
Source text: As with all therapeutic proteins, there is a potential for immunogenicity. The detection of antibody formation is highly dependent on the sensitivity and specificity of the assay. Additionally, the observed incidence of antibody (including neutralizing antibody) positivity in an assay may be influenced by several factors including assay methodology, sample handling, timing of sample collection, concomitant medications, and underlying disease. For these reasons, comparison of the incidence of antibodies in the studies described below with the incidence of antibodies in other studies or other enfortumab vedotin products may be misleading.
A total of 365 patients were tested for immunogenicity to PADCEV; 4 patients (1%) were confirmed to be transiently positive for anti-therapeutic antibody (ATA), and 1 patient (0.3%) was confirmed to be persistently positive for ATA at any post-baseline time point. No impact of ATA on efficacy, safety and pharmacokinetics was observed.

EV-201 adverse reactions = type: in vivo, human
Method: The data described in this section reflect exposure to PADCEV from EV-201, a single arm study in patients (n=125) with locally advanced or metastatic urothelial cancer who had received prior treatment with a PD-1 or PD-L1 inhibitor and platinum-based chemotherapy. Patients received PADCEV 1.25 mg/kg on Days 1, 8 and 15 of a 28-day cycle until disease progression or unacceptable toxicity. The median duration of exposure to PADCEV was 4.6 months (range: 0.5-15.6).

[6] = Outcome of adverse reactions under the dose modification schedule; type: in vivo, human
Source text: The results based on the dose modification schedule as provided are as follows.

[7] = ADC, after first treatment cycle of 1.25 mg/kg, Days 1, 8 and 15
[8] = EV-201, patients who experienced rash
[9] = among patients who experienced hyperglycemia
[10] = among patients who experienced it, dose modification schedule

enfortumab vedotin-ejfv [PADCEV]
exposure (AUC) in mild, moderate or severe renal impairment ([1]; 1.25 mg/kg, compared to normal renal function): No significant differences
AUC0-28 d, Mean (±SD) [1, 7]: 111 (38) μg · d/mL
Cmax, Mean (±SD) [1, 7]: 28 (6.8) μg/mL
accumulation following repeat administration ([1]; patients): Minimal accumulation
estimated mean steady-state volume of distribution ([1]; patients): 11 L
mean clearance (CL) ([1]; patients): 0.10 L/h
steady-state concentrations reached after ([1]; patients): 1 treatment cycle
time of peak ADC concentrations ([1]; patients, intravenous infusion): near the end of intravenous infusion
elimination half-life ([1]; patients, multi-exponential declines): 81.6 h
differences in pharmacokinetics based on age (24 to 87 years), sex, or race/ethnicity ([1]; population pharmacokinetic analysis): no clinically significant differences
potential indicated by repeat-dose toxicity studies in rats (rats): impair male reproductive function and fertility
reversal of testes and epididymis findings by end of recovery period (rats; up to 13 weeks): did not reverse
findings in testes and epididymis (rats; up to 13 weeks, doses >=2 mg/kg, exposures similar to recommended human dose): decreases in testes and epididymis weights, seminiferous tubule degeneration, spermatid/spermatocyte depletion in the testes and cell debris, sperm granuloma and hypospermia/abnormal spermatids in the epididymis
median time to response ([2]; EV-201): 1.84 months
Median Duration of Response ([2]; EV-201, BICR, median follow-up 10.2 months): 7.6 months
Complete Response Rate (CR) ([2]; EV-201, n = 125, BICR): 12%
Partial Response Rate (PR) ([2]; EV-201, n = 125, BICR): 32%
Confirmed ORR ([2]; EV-201, n = 125, BICR, 1.25 mg/kg Days 1, 8, 15 of 28-day cycle): 44%
QTc prolongation [3]: no large QTc prolongation
storage time of prepared infusion bag ([4]; 2° C. to 8° C.): ≤ 8 h
storage time of reconstituted vials ([4]; refrigeration at 2° C. to 8° C.): up to 4 hours
impact of ATA on efficacy, safety and pharmacokinetics [5]: No impact
patients persistently positive for ATA at any post-baseline time point ([5]; 1 patient): 0.3%
patients transiently positive for anti-therapeutic antibody (ATA) ([5]; 4 patients): 1%
herpes zoster (EV-201 adverse reactions; EV-201): 3%
infusion site extravasation (EV-201 adverse reactions; EV-201): 2%
median time to onset of Grade >=2 peripheral neuropathy (EV-201 adverse reactions; EV-201): 3.8 months
median time to onset of severe skin reactions (EV-201 adverse reactions; EV-201): 0.8 months
peripheral neuropathy: complete resolution at last evaluation (EV-201 adverse reactions; EV-201): 19%
peripheral neuropathy: partial improvement at last evaluation (EV-201 adverse reactions; EV-201): 26%
Alopecia, Grade >= 3 (EV-201 adverse reactions; EV-201, n = 125): 0%
Any adverse reaction, All Grades (EV-201 adverse reactions; EV-201, n = 125): 100%
Any adverse reaction, Grade >= 3 (EV-201 adverse reactions; EV-201, n = 125): 73%
Decreased appetite, Grade >= 3 (EV-201 adverse reactions; EV-201, n = 125): 2%
Dry skin, Grade >= 3 (EV-201 adverse reactions; EV-201, n = 125): 0%
Dysgeusia, Grade >= 3 (EV-201 adverse reactions; EV-201, n = 125): 0%
Nausea, Grade >= 3 (EV-201 adverse reactions; EV-201, n = 125): 3%
Peripheral neuropathy (grouped term), Grade >= 3 (EV-201 adverse reactions; EV-201, n = 125): 4%
Pruritus, All Grades (EV-201 adverse reactions; EV-201, n = 125): 26%
Pruritus, Grade >= 3 (EV-201 adverse reactions; EV-201, n = 125): 2%
Vomiting, All Grades (EV-201 adverse reactions; EV-201, n = 125): 18%
Vomiting, Grade >= 3 (EV-201 adverse reactions; EV-201, n = 125): 2%
adverse reactions leading to discontinuation (EV-201 adverse reactions; EV-201, n = 125): 16%
adverse reactions leading to dose interruption (EV-201 adverse reactions; EV-201, n = 125): 64%
adverse reactions leading to dose reduction (EV-201 adverse reactions; EV-201, n = 125): 34%
dose interruption due to fatigue (EV-201 adverse reactions; EV-201, n = 125): 6%
dose interruption due to peripheral neuropathy (EV-201 adverse reactions; EV-201, n = 125): 18%
dose interruption due to rash (EV-201 adverse reactions; EV-201, n = 125): 9%
dose reduction due to fatigue (EV-201 adverse reactions; EV-201, n = 125): 4%
dose reduction due to peripheral neuropathy (EV-201 adverse reactions; EV-201, n = 125): 12%
dose reduction due to rash (EV-201 adverse reactions; EV-201, n = 125): 6%
fatal adverse reaction: acute respiratory failure (EV-201 adverse reactions; EV-201, n = 125): 0.8%
fatal adverse reaction: aspiration pneumonia (EV-201 adverse reactions; EV-201, n = 125): 0.8%
fatal adverse reaction: cardiac disorder (EV-201 adverse reactions; EV-201, n = 125): 0.8%
fatal adverse reaction: sepsis (EV-201 adverse reactions; EV-201, n = 125): 0.8%
fatal adverse reactions (EV-201 adverse reactions; EV-201, n = 125): 3.2%
peripheral neuropathy leading to treatment discontinuation (EV-201 adverse reactions; EV-201, n = 125): 6%
serious adverse reaction: diarrhea (EV-201 adverse reactions; EV-201, n = 125): 4%
serious adverse reaction: fatigue (EV-201 adverse reactions; EV-201, n = 125): 2%
serious adverse reaction: nausea (EV-201 adverse reactions; EV-201, n = 125): 2%
serious adverse reaction: rash (EV-201 adverse reactions; EV-201, n = 125): 3%
serious adverse reaction: vomiting (EV-201 adverse reactions; EV-201, n = 125): 2%
serious adverse reactions (EV-201 adverse reactions; EV-201, n = 125, 1.25 mg/kg Days 1, 8, 15 of 28-day cycle): 46%
rash: complete resolution (EV-201 adverse reactions; [8]): 65%
rash: partial improvement (EV-201 adverse reactions; [8]): 22%
patients who developed Grade 3-4 hyperglycemia (EV-201 adverse reactions; EV-201, baseline hemoglobin A1C >=8% excluded): 8%
hyperglycemia: complete resolution [6, 9]: 57%
hyperglycemia: some improvement [6, 9]: 14%
rash: complete resolution [6, 10]: 73%
rash: patients with resolution or improvement [6, 10]: 93%
rash: some improvement [6, 10]: 20%
peripheral neuropathy: resolution or Grade 1 after the dose modification ([6]; among patients who experienced peripheral neuropathy): 76%
ongoing rash that was Grade 1 ([6]; of those with ongoing rash): 75%
